The target of test [1] is T1, ERA-CO20-439 (secreted soluble ectodomain of codon-optimized ERA rabies G glycoprotein, Myc/His tagged) (rabies virus, ERA strain, UniProt P03524 20-439).
T1 sequence: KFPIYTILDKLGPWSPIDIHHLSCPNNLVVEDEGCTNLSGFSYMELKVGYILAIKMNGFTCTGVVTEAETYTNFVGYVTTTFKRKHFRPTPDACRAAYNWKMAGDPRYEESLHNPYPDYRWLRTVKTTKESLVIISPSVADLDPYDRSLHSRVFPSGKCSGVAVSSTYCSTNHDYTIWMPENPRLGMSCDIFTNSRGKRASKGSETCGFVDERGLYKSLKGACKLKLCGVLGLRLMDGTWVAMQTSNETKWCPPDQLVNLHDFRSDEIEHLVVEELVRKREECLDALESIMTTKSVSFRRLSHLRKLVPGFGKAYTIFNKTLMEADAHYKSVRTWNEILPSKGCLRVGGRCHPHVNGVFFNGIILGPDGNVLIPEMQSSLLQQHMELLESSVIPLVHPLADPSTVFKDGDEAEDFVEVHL
In words: Biacore (SPR) on the ectodomain region of codon-optimized rabies G glycoprotein.

The target of test [2] is T2, ERA-CO glycoprotein (codon-optimized full-length rabies G glycoprotein, ERA strain, amino acids 1-524, … (rabies virus, ERA strain, UniProt P03524 20-524)).
T2 sequence: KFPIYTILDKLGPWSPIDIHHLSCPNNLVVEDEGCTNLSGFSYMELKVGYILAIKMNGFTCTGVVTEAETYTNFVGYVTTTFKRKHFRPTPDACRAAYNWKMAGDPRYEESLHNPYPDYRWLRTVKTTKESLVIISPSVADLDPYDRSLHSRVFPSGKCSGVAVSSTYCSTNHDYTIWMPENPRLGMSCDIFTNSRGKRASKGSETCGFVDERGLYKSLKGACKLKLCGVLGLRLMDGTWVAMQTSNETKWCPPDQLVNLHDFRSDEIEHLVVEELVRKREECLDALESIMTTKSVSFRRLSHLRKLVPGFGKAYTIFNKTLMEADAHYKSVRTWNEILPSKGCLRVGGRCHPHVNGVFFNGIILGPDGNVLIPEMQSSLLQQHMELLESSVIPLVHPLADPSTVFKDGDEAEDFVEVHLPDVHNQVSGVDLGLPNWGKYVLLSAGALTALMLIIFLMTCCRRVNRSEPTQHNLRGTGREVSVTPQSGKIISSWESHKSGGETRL
In words: flow cytometry on transfected 293T cells, PE anti-human IgG. (Flow cytometry measures light scatter and fluorescence of single cells or particles in a stream.)

Experimental findings from patent publication US20090041777A1 (UNIVERSITY OF MASSACHUSETTS, published 2009) are described below.

B1: HuMab 17C7 (antibody, V domains shown)
VH: QVQLVESGGGVVQPGRSLRLSCAASGFTFSTYAMHWVRQAPGKGLEWVAVVSYDGRTKDYADSVKGRFTISRDNSKNTLYLQMNSLRTEDTAVYFCARERFSGAYFDYWGQGTLVTVSS
VL: EIVLTQSPATLSLSPGERATLSCRASQSVSSYLAWYQQKPGQAPRLLIYDASNRATGIPARFSGSGSGTDFTLTISSLEPEDFAVYSCQQRNNWPPTFGGGTKVEIK
B1: in test [1], the Kd – broadly, the concentration at which binding is half-saturated – was at most 13.6 nM. Moreover, the EC50 (read off the curve) (usually the concentration at which the effect is half-maximal) in test [2] was about 30 nM.
